Broadly, the IC50 is the concentration that inhibits the measured activity by half. The EC50 is the concentration giving half of the maximal effect. For orientation: Kd means a measure of binding affinity in units of concentration. A word on the koff: it is a measure of how fast the partners let go of each other. A word on the kon: it is the second-order rate constant of association.

The values that follow come from patent US20240018243A1 (NOVOMAB BIOPHARMACEUTICALS, published 2024).

Experiment [1] concerns the target Human CTLA4-FC recombinant protein (human). The experiment in a line: competition ELISA, human CTLA4-FC coated, blocked ligand CD80-FC-HIS, anti-HIS-HRP, OD450. For orientation: An ELISA detects its analyte on a solid surface through an enzyme-linked reagent.
Experiment [2] has as its target monkey CTLA4 on expressing cells (monkey). The experiment in a line: cell ELISA on monkey CTLA4 expressing cells, goat anti-human IgG-HRP, OD450.
Experiment [3] deals with T1, Human CTLA4-His recombinant protein (human, UniProt P16410 36-162).
T1 construct: also called CTLA4-HIS (Sino Biological); CTLA4 recombinant protein; not shown: His tag
T1 sequence (looked up): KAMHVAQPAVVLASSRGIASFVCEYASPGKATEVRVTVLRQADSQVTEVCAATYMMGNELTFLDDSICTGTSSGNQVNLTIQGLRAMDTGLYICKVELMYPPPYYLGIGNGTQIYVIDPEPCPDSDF
The experiment in a line: OCTET (BLI), antibody on protein A biosensor, CTLA4-HIS in solution. Here is the method: The affinity constant KD of the antibody to CTLA4 was determined using OCTET. Firstly, the protein A biosensor was used to immobilize the antibody to be detected, and the biosensors containing different antibodies were placed in the CTLA4-HIS diluent with the same concentration (Sino Biological) for binding for 4 min. The biosensor was then placed in the PBS for 400 s. The affinity constant KD of the antibody was analyzed by OCTET analysis software, KD is kd/ka.

With Isotype (antibody), in experiment [1], the IC50 stood at 43.6 nM. As for Isotype control (antibody), the EC50 in experiment [2] was determined as 799 µg/mL.

B1: HCA14-KH (Fc fusion)
chain 1: ESKYGPPCPPCPAPEFLGGPSVFLFPPKPKDTLMISRTPEVTCVVVDVSQEDPEVQFNWYVDGVEVHNAKTKPREEQFNSTYRVVSVLTVLHQDWLNGKEYKCKVSNKGLPSSIEKTISKAKGQPREPQVYTLPPCQEEMTKNQVSLWCLVKGFYPSDIAVEWESNGQPENNYKTTPPVLDSDGSFFLYSRLTVDKSRWQEGNVFSCSVMHEALHNHYTQKSLSLSLGK
chain 2: EVQLLESGGGLVQPGGSLRLSCAASGSIFSINHMAWYRQAPGKQRELVAGVNSRGTTNYVDSVKGRFTISRDNSKNTLYLQMNSLRAEDTAVYYCRALGGAVAAWGQGTLVTVSSGGGGSGGGGSGGGGSESKYGPPCPPCPAPEFLGGPSVFLFPPKPKDTLMISRTPEVTCVVVDVSQEDPEVQFNWYVDGVEVHNAKTKPREEQFNSTYRVVSVLTVLHQDWLNGKEYKCKVSNKGLPSSIEKTISKAKGQPREPQVCTLPPSQEEMTKNQVSLSCAVKGFYPSDIAVEWESNGQPENNYKTTPPVLDSDGSFFLVSRLTVDKSRWQEGNVFSCSVMHEALHNHYTQKSLSLSLGK
notes: also called HCA14 -KB; monovalent antibody
In the case of B1, in experiment [3], the dissociation constant Kd came to 13.9 nM, the koff is 0.000481 s⁻¹ and the kon was 34500 M⁻¹ s⁻¹.
